The values that follow come from JP2015097496A (dated 2015).

The target of assay [1] is T1, Robo1 IG5-2ドメイン(B5209B抗体が認識するイムノグロブリン様ドメインの5番目) (Homo sapiens (Human), UniProt Q9Y6N7 455-543).
T1 construct: Antigen fragment of Robo1 used in ITC and in the co-crystal structure
T1 sequence: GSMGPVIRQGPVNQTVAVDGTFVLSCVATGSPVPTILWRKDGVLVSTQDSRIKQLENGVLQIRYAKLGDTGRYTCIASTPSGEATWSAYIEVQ
In words: co-crystal structure of scFv and IG5-2.

Assay [2] has as its target T1, Robo1 …. Nature of the assay: ITC with molecular dynamics interpretation.
Assay [3] concerns the target T1, Robo1 …. Nature of the assay: ITC, thermodynamic parameters. For orientation: ITC needs no label: the signal is the heat of the interaction.

B1: B5209B 一本鎖抗体(scFv) 野生型 (scFv)
scFv: MAEVQLVESGGGVVQPGGSLKLSCAASGFTFSTYDMSWVRQTPDKRLELVATINSNGGSTYYPDSVKGRFTSSRDNAKNILYLQMSSLKSEDTAMYYCAREALLRPPYYALDYWGQGTSVTVSSAGGGGSGGGGSGGGGSGGGGSDILDIQMTQSPASLSASVGETVTITCGASENIYGALTWYQRKQGKSPQLLIYGAINLADDKSSRFSGSGSGRQYSLKISSLHPDDVATYYCQNVLSTPFTFGSGTKLEIKAAGHHHHHH
notes: Expressed in E. coli Origami2(DE3) from pRA2; also called B5209B scFv; WT
Turning to B1, the binding result in assay [1] is on record as “binds”.

B2: B5209B scFv HP103A変異体 (scFv)
scFv: QLVESGGGVVQPGGSLKLSCAASGFTFSTYDMSWVRQTPDKRLELVATINSNGGSTYYPDSVKGRFTSSRDNAKNILYLQMSSLKSEDTAMYYCAREALLRPAYYALDYWGQGTSVTVSSGGGGSGGGGSGGGGSGGGGSDIQMTQSPASLSASVGETVTITCGASENIYGALTWYQRKQGKSPQLLIYGAINLADDKSSRFSGSGSGRQYSLKISSLHPDDVATYYCQNVLSTPFTFGSGTKLEIKHHHHHH
Consider B2, for which, in assay [2], the binding result is recorded as “binds”.

B3: B5209B scFv LY30A変異体 (scFv)
scFv: QLVESGGGVVQPGGSLKLSCAASGFTFSTYDMSWVRQTPDKRLELVATINSNGGSTYYPDSVKGRFTSSRDNAKNILYLQMSSLKSEDTAMYYCAREALLRPPYYALDYWGQGTSVTVSSGGGGSGGGGSGGGGSGGGGSDIQMTQSPASLSASVGETVTITCGASENIAGALTWYQRKQGKSPQLLIYGAINLADDKSSRFSGSGSGRQYSLKISSLHPDDVATYYCQNVLSTPFTFGSGTKLEIKHHHHHH
B3: in assay [3], the binding result was “binds”.
